{"source": "paper PMC6167752", "about": "(ACS infectious diseases, 2018)", "key": {"AAC(2′)-Ia": {"target": "AAC(2′)-Ia (Providencia stuartii, UniProt Q52424)", "sequence (Q52424 whole entry)": "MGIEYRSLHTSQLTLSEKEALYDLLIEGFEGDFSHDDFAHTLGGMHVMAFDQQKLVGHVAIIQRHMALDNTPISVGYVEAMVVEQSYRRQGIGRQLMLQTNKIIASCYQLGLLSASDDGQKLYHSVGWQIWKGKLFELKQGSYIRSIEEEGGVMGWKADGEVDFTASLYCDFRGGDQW", "assay": "X-ray crystal structure", "format": "binding"}, "[1]": {"test_system": "CN[C@@H]1[C@@H](O)[C@@H](O[C@@H]2[C@@H](O)[C@H](O[C@H]3OC(CNCCO)=CC[C@H]3N)[C@@H](N)C[C@H]2NC(=O)[C@@H](O)CCN)OC[C@]1(C)O", "assay": "purified protein", "format": "biochemical, Providencia stuartii", "settings": "150 μM AcCoA, 25 mM MES pH 6, 25 °C"}}}
{"compound": "CC(=O)SCCNC(=O)CCNC(=O)[C@H](O)C(C)(C)COP(=O)(O)OP(=O)(O)OC[C@H]1O[C@@H](n2cnc3c(N)ncnc32)[C@H](O)[C@@H]1OP(=O)(O)O", "note": "[acetyl-coenzyme A]", "values": [{"measurement": "X-ray crystal structure", "setting": "AAC(2′)-Ia; one molecule modelled", "value": "one acetyl-coenzyme A, and three coenzyme A molecules was evident in difference density maps"}]}
{"compound": "CC(C)(COP(=O)(O)OP(=O)(O)OC[C@H]1O[C@@H](n2cnc3c(N)ncnc32)[C@H](O)[C@@H]1OP(=O)(O)O)[C@@H](O)C(=O)NCCC(=O)NCCS", "note": "[coenzyme A]", "values": [{"measurement": "X-ray crystal structure", "setting": "AAC(2′)-Ia; active site", "value": "one dimer contained a coenzyme A bound to each active site"}]}
{"compound": "AAC(2′)-Ia (Providencia stuartii)", "values": [{"measurement": "Km", "setting": "[1]", "value": "370 ± 90", "unit": "µM"}, {"measurement": "kcat", "setting": "[1]", "value": "0.9 ± 0.1", "unit": "s⁻¹"}, {"measurement": "kcat/Km", "setting": "[1]", "value": 2400, "unit": "M⁻¹ s⁻¹"}]}
